Assay [1] concerns the target T1, prostate-specific stem cell antigen (PSCA) (human) (UniProt O43653).
T1 sequence (looked up): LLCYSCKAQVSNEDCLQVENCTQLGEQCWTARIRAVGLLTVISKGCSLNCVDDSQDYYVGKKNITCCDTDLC
The assay is described as follows: cell-based or functional assay.

For assay [2], the target named is T2, prostate-specific stem cell antigen (PSCA) (human, UniProt O43653 12-83).
T2 sequence (looked up): T1 sequence (looked up)
The assay is described as follows: cell-based or functional assay.

The results in this text go back to patent US20140134155A1 (TECHNISCHE UNIVERSIT T DRESDEN, published 2014).

Some results are limits rather than exact numbers.

B1: murine bispecific scBsTaFv CD3-PSCA(7F5) (bispecific antibody, part only; not given: anti-CD3 scFv, linkers, tags, part only)
chain, part: QVKLQESGGGLVQPGGSLKLSCVASGFTFSSYTMSWVRRTPEKRLEWVAYIHNGGGHTYYPDTIKGRFTISRDNAKNTLFLEMSSLKSEDTAMYYCTRRMYYGNSHWYFDVWGAGTSVTVSDIQMTQSPSSLSASVGDRVTITCRTSQDISNYLNWYQQKPGKAPKLLIYYTLKLNSGVPSRFSGSGSGTDFTFTISSLQPEDIATYYCQQSKTLPWTFGGGTKVEIK
In turn, B1 displayed a specific lysis of 51Cr-loaded PC3-PSCA tumor cells (chrome release test) in assay [1] of 60%.

B2: humanized bispecific scBsTaFv CD3-PSCA(MB1) (bispecific antibody)
chain: QVQLVQSGAEVKKPGASVKVSCKASGYTFTKYVIHWVRQAPGQGLEWMGYINPYNDVSKYNEKFRGRVTMTTDTSTSTAYMELRSLRSDDTAVYYCARNKDYYPMDYWGQGTTVTVSGGGGSGGGGSGGGGSEIVLTQSPATLSLSPGERATLSCSASSSVSYMHWYQQKPGQAPRLLIYDTSKLASGIPARFSGSGSGTDFTLTISSLEPEDFAVYYCQQWSSNPLTFGGGTKVEIKDIQMTQSPSSLSASVGDRVTITCGTSQDINNYLNWYQQKPGKVPKLLIYYTSRLHSGVPSRFSGSGSGTDFTLTISSLQPEDVATYYCQQSKTLPWTFGGGTQLTVLGGGGSGGGGSGASAAGGGGSGGGGSQVQLVESGGGLVKPGGSLRLSCAASGFTFSSYSMSWIRQAPGKGLEWVSYINDSGGSTFYPDTVKGRFTISRDNAKNSLYLQMNSLRAEDTAVYYCARRMYYGNSHWHFDVWGQGTTVTVSS
On to B2, for which the “specific lysis of 51Cr-loaded PC3-PSCA tumor cells (chrome release test, effector target ratio 10:1, 20 h)” value in assay [2] is greater than 90%.

B3: murine bispecific scBsTaFv CD3-PSCA(MB1) (bispecific antibody, part only; not given: anti-CD3 scFv and tags, not shown: small tags and cut ends)
chain, part: VQLQESGGVLVQPGGSLKLSCAASGFTFSSYSMSWIRQTPDRRLEWVAYINDSGGSTFYPDTVKGRFSISRDNAKNTLYLQISRLRSGDTAIYYCSRRMYYGNSHWHFDVWGAGTTVTVSSGGGGSGGGGSGGGGSDIVMTQSTSSLSASLGDRVTINCGTSQDINNYLNWYQQKPDGSVKLLIYYTSRLHSGVPSRFSGSGSGTDYSLTISNLEQGDIATYFCQQSKTLPWTFGGGTKLELKRADAAPTVS
Take B3: in assay [1], the antibody amount giving strong lysis of PSCA-positive cells (chrome release test) is less than 1 ng and the specific lysis of 51Cr-loaded PC3-PSCA tumor cells (chrome release test) is 80%.
